{
  "source": "patent US6235873",
  "tested_on": "Stat3-C (A662C/N664C Stat3) (Mus musculus)",
  "experiment": "cell_activity",
  "details": "approximately 10-fold, no induced tyrosine phosphorylation",
  "data": [
    {"substance": "4x m67 luciferase reporter", "values": [
      {"measurement": "activity (fold over background)", "result": 10}
    ]}
  ]
}
